Measured values from PMC9365671, “Synergistic autoinhibition and activation mechanisms control kinesin-1 motor activity” (Cell reports, 2022).

B1: 6xHis-2xStrepII-sfGFP-KLC1-CC (aa 1-200) (domain or fragment, human, UniProt Q07866 1-200, looked up)
chain: MYDNMSTMVYIKEDKLEKLTQDEIISKTKQVIQGLEALKNEHNSILQSLLETLKCLKKDDESNLVEEKSNMIRKSLEMLELGLSEAQVMMALSNHLNAVESEKQKLRAQVRRLCQENQWLRDELANTQQKLQKSEQSVAQLEEEKKHLEFMNQLKKYDDDISPSEDKDTDSTKEPLDDLFPNDEDDPGQGIQQQHSSAAA
notes: kinesin light chain 1, human, aa 1-200 (N-terminal coiled-coil part); also called N-terminal domain of the KLC; source: pET28a construct (E. coli BL21-CodonPlus (DE3)-RIPL), purified (Streptactin XT, SEC on Superdex 200)
B2: full-length human KIF5C-mScarlet-StrepII (natural protein, UniProt O60282 1-957, looked up)
chain: MADPAECSIKVMCRFRPLNEAEILRGDKFIPKFKGDETVVIGQGKPYVFDRVLPPNTTQEQVYNACAKQIVKDVLEGYNGTIFAYGQTSSGKTHTMEGKLHDPQLMGIIPRIAHDIFDHIYSMDENLEFHIKVSYFEIYLDKIRDLLDVSKTNLAVHEDKNRVPYVKGCTERFVSSPEEVMDVIDEGKANRHVAVTNMNEHSSRSHSIFLINIKQENVETEKKLSGKLYLVDLAGSEKVSKTGAEGAVLDEAKNINKSLSALGNVISALAEGTKTHVPYRDSKMTRILQDSLGGNCRTTIVICCSPSVFNEAETKSTLMFGQRAKTIKNTVSVNLELTAEEWKKKYEKEKEKNKTLKNVIQHLEMELNRWRNGEAVPEDEQISAKDQKNLEPCDNTPIIDNIAPVVAGISTEEKEKYDEEISSLYRQLDDKDDEINQQSQLAEKLKQQMLDQDELLASTRRDYEKIQEELTRLQIENEAAKDEVKEVLQALEELAVNYDQKSQEVEDKTRANEQLTDELAQKTTTLTTTQRELSQLQELSNHQKKRATEILNLLLKDLGEIGGIIGTNDVKTLADVNGVIEEEFTMARLYISKMKSEVKSLVNRSKQLESAQMDSNRKMNASERELAACQLLISQHEAKIKSLTDYMQNMEQKRRQLEESQDSLSEELAKLRAQEKMHEVSFQDKEKEHLTRLQDAEEMKKALEQQMESHREAHQKQLSRLRDEIEEKQKIIDEIRDLNQKLQLEQEKLSSDYNKLKIEDQEREMKLEKLLLLNDKREQAREDLKGLEETVSRELQTLHNLRKLFVQDLTTRVKKSVELDNDDGGGSAAQKQKISFLENNLEQLTKVHKQLVRDNADLRCELPKLEKRLRATAERVKALESALKEAKENAMRDRKRYQQEVDRIKEAVRAKNMARRAHSAQIAKPIRPGHYPASSPTAVHAIRGGGGSSSNSTHYQK
notes: kinesin heavy chain KIF5C, human, cDNA BC110287, full length; 2x Prescission protease sites lie between KIF5C and mScarlet; also called KHC; source: Sf9 (baculovirus), purified (Streptactin XT, SEC); also co-expressed with KLC1 and co-purified; not shown: mScarlet, C-terminal, kept

Experiments:
[1] = target: T1, KIF5B-Δhinge (Δ505-610)-mScarlet-StrepII (human, UniProt P33176 1-963, Δ505-610); assay: TIRF microscopy on microtubules; 40 nM KIF5B (wild type, mutants or K420B) on MTs with or without 200 nM recombinant KLC1, KLC1-CC or KLC1-TPR added in trans; ATP; relative fluorescence intensity on MTs; conditions: both partners purified
T1 construct: KIF5B, human, full length with aa 505-610 deleted (aa 1-504 joined to aa 611-963); also called delta-hinge mutant; delta-hinge KHC mutant; source: Sf9 (baculovirus), purified (Streptactin XT, SEC; the fractions that eluted like the wild type were used); not shown: mScarlet, C-terminal, kept
T1 sequence (looked up): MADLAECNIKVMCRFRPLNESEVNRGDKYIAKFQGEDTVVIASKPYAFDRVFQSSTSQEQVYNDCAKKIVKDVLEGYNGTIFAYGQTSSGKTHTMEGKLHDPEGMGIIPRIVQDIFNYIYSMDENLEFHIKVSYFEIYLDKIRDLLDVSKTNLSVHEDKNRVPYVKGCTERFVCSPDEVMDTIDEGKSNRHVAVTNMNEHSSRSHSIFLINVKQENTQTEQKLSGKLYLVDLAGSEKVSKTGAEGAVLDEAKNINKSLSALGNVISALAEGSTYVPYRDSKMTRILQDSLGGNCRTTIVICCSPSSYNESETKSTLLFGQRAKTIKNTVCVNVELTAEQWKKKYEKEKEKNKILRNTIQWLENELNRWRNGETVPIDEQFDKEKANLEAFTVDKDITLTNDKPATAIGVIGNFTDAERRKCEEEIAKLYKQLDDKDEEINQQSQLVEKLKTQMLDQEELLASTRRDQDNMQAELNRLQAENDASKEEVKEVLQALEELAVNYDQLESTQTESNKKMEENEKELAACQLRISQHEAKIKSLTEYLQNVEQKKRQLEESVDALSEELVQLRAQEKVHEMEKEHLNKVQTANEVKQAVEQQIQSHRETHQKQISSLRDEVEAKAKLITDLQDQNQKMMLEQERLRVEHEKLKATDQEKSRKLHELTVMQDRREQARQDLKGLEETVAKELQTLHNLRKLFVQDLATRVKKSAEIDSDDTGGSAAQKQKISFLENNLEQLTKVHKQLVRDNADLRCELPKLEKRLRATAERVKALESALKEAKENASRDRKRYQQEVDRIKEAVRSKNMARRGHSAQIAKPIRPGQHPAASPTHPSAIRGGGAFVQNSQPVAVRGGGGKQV

[2] = target: the molecule itself; assay: SEC-MALS; purified full-length KIF5 alone; BioSep SEC-s4000 column, GF150 buffer (25 mM HEPES-KOH, 150 mM KCl, 2 mM MgCl2)

Binder | binding result [1] | stoichiometry N [2]
B1 | binds | 
B2 |  | 2
